From US20190338048A1
pKd: −log10 of the molar value. Values joined by “and” are separate entries in the source; they are usually repeats but may differ in a detail not shown here. Identical values can stand only once. Like-named read-outs stand apart in the source and are kept apart here. Values belong to the substance of their own block, whether it stands above or below them.

Tests used:
[1] = target: Recombinant human IL-17A (human) (UniProt Q16552); experiment: SPR, IL-17A immobilised, Fab as analyte
[2] = target: Recombinant human IL-17A (human) (UniProt Q16552); experiment: SPR
[3] = target: CR8071 lambda light chain E124Q_T131R (L1 of designs 3971, 3972 and 3987, system C); experiment: SMCA: H1, L1, H2, L2 co-expressed, protein A, LC-MS
[4] = target: CR8071 lambda light chain L1 E124Q_T131R (designs 3971 and 3972, System C); experiment: as above
[5] = target: CR8071 lambda light chain L1 with E124Q_T131K; experiment: SMCA System C: four chains co-expressed, protein A, LC-MS
[6] = target: Pertuzumab kappa light chain L135A (L2), N-terminal HA tag; experiment: LCCA, SPR of light chain tags
[7] = target: Pertuzumab kappa light chain T178F (L2), N-terminal HA tag; experiment: LCCA, SPR of light chain tags
[8] = target: Pertuzumab kappa light chain, wild type (L2), N-terminal HA tag; experiment: LCCA, SPR of light chain tags
[9] = target: CAT-2200 lambda light chain T116F_S176F (L1), N-terminal FLAG tag; experiment: LCCA, SPR of light chain tags
[10] = target: Pertuzumab kappa light chain L135A (L2), N-terminal HA tag; experiment: LCCA, SPR of light chain tags; remark: listed apart in the source
[11] = target: Pertuzumab kappa light chain Q124E_V133D (L2), N-terminal HA tag; experiment: LCCA, SPR of light chain tags
[12] = target: CAT-2200 lambda light chain S176K_Y178R (L1), N-terminal FLAG tag; experiment: LCCA, SPR of light chain tags
[13] = target: CAT-2200 lambda light chain S176K_Y178K (L1), N-terminal FLAG tag; experiment: LCCA, SPR of light chain tags
[14] = target: Pertuzumab kappa light chain Q124E_V133D (L2), N-terminal HA tag; experiment: LCCA, SPR of light chain tags; remark: listed apart in the source
[15] = target: Pertuzumab kappa light chain Q124E_V133D (L2), N-terminal HA tag; experiment: LCCA, SPR of light chain tags; remark: listed apart in the source
[16] = target: Pertuzumab kappa light chain Q124E_Q160E_T180E (L2), N-terminal HA tag; experiment: LCCA, SPR of light chain tags
[17] = target: CAT-2200 lambda light chain S176K_Y178L (L1), N-terminal FLAG tag; experiment: LCCA, SPR of light chain tags
[18] = target: Pertuzumab kappa light chain Q124E_Q160E_T180E (L2), N-terminal HA tag; experiment: LCCA, SPR of light chain tags; remark: listed apart in the source
[19] = target: Pertuzumab kappa light chain Q124E_Q160E_T180E (L2), N-terminal HA tag; experiment: LCCA, SPR of light chain tags; remark: listed apart in the source
[20] = target: Recombinant HER2 protein (HER2-ECD) (UniProt P04626); experiment: SPR, Fab captured via anti-penta-His, HER2 as analyte
[21] = target: Recombinant HER2 protein (HER2-ECD) (UniProt P04626); experiment: SPR

pKd [1]: 9.54
Change in KD of H1L1 Fab vs wild type [2]: -0.14
Substance: CAT-2200 designed Fab heterodimer H1L1: H1 L143E_K145T_Q179E / L1 E124Q_T131R

% H1L1 Pairing [3]: 92.8% and 99.2%
Change in % H1L1 Pairing with respect to wild type [3]: 44.4% and 50.8%
Substance: CR8071 heavy chain A139W_L143D_K145T (H1 of designs 3972 and 3987, system C)

% H1L1 Pairing [4]: 92.8%
Change in % H1L1 Pairing with respect to wild type [4]: 44.4%
Substance: CR8071 heavy chain H1 A139W_L143D_K145T (design 3972, System C)

% H1L1 Pairing [4]: 89%
Change in % H1L1 Pairing with respect to wild type [4]: 40.6%
Substance: CR8071 heavy chain H1 L143D_K145T (design 3971, System C)

% H1L1 Pairing [5]: 79.7%
Change in % H1L1 Pairing with respect to wild type [5]: 11.6%
Substance: CR8071 heavy chain H1 with L143D_K145T

H2L2:H2L1 normalized median ratio [11]: 86%
H2L2:H2L1 normalized median scalar value ln(r1/f1) [11]: 1.84
H2L2:H2L1 normalized median ratio [12]: 14%
H2L2:H2L1 normalized median ratio [13]: 21%
H2L2:H2L1 normalized median ratio [14]: 82%
H2L2:H2L1 normalized median scalar value ln(r1/f1) [14]: 1.53
H2L2:H2L1 normalized median ratio [15]: 79%
H2L2:H2L1 normalized median scalar value ln(r1/f1) [15]: 1.3
Substance: Pertuzumab Fab heavy chain L143R (H2), ABD2-His6 tagged

H2L2:H2L1 normalized median ratio [16]: 96%
H2L2:H2L1 normalized median scalar value ln(r1/f1) [16]: 3.21
H2L2:H2L1 normalized median ratio [12]: 4%
H2L2:H2L1 normalized median ratio [17]: 13%
H2L2:H2L1 normalized median ratio [13]: 9%
H2L2:H2L1 normalized median ratio [18]: 87%
H2L2:H2L1 normalized median scalar value ln(r1/f1) [18]: 1.88
H2L2:H2L1 normalized median ratio [19]: 91%
H2L2:H2L1 normalized median scalar value ln(r1/f1) [19]: 2.33
Substance: Pertuzumab Fab heavy chain Q179K (H2), ABD2-His6 tagged

pKd [20]: 8.22
Substance: Pertuzumab designed Fab heterodimer H2L2: H2 L45P_L143E_K145T_Q179E / L2 P44F_Q124K_T178R

pKd [20]: 8.10
Change in KD of H2L2 Fab vs wild type [21]: -0.0084
Substance: Pertuzumab designed Fab heterodimer H2L2: H2 Q39E_L124E_K145T_Q179E / L2 Q38R_S131R_V133G_S176R

The remaining lines, values behind:

Substance: CAT-2200 designed Fab heterodimer H1L1: H1 L143K / L1 K129T_V133D
pKd [1]: 9.59
Change in KD of H1L1 Fab vs wild type [2]: -0.09

Substance: CAT-2200 designed Fab heterodimer H1L1: H1 Q179K / L1 K129T_S180E
pKd [1]: 9.62
Change in KD of H1L1 Fab vs wild type [2]: -0.056

Substance: CAT-2200 designed Fab heterodimer H1L1: H1 S186R / L1 K129T_S180E
pKd [1]: 9.59
Change in KD of H1L1 Fab vs wild type [2]: -0.088

Substance: CR8071 heavy chain H1 with L143E_K145T_Q179E
% H1L1 Pairing [5]: 84.7%
Change in % H1L1 Pairing with respect to wild type [5]: 36.3%

Substance: CR8071 heavy chain L143D_K145T (H1 of design 3971, system C)
% H1L1 Pairing [3]: 89%
Change in % H1L1 Pairing with respect to wild type [3]: 40.6%

Substance: Pertuzumab Fab heavy chain L143I_V190F (H2), ABD2-His6 tagged
H2L2:H2L1 normalized median ratio [6]: 46%
H2L2:H2L1 normalized median scalar value ln(r1/f1) [6]: -0.16
H2L2:H2L1 normalized median ratio [7]: 65%
H2L2:H2L1 normalized median scalar value ln(r1/f1) [7]: 0.62
H2L2:H2L1 normalized median ratio [8]: 62%
H2L2:H2L1 normalized median scalar value ln(r1/f1) [8]: 0.49
H2L2:H2L1 normalized median ratio [9]: 38%
H2L2:H2L1 normalized median ratio [10]: 49%
H2L2:H2L1 normalized median scalar value ln(r1/f1) [10]: -0.04

Substance: Pertuzumab designed Fab heterodimer H2L2: H2 L45P_L124E_K145T_Q179E / L2 P44F_S131R_V133G_S176R
pKd [20]: 8.24

Substance: Pertuzumab designed Fab heterodimer H2L2: H2 Q39E_L143E_K145T_Q179E / L2 Q38R_Q124K_T178R
pKd [20]: 8.13
Change in KD of H2L2 Fab vs wild type [21]: 0.023
